Assay results published in article PMC8175468, “3D architecture and structural flexibility revealed in the subfamily of large glutamate dehydrogenases by a mycobacterial enzyme” (Communications Biology, 2021).

B1: Se-Met mL-GDH180 (seleno-methionine derivative of the mycobacterial L-GDH180 from Mycobacterium smegmatis MC2-155) (enzyme, UniProt A0R1C2 1-1594, looked up)
chain: MIRRLSVAFLSTYRGPQADAPGVTSTGPLAVAAHDDLVSDDLVAAHYRLASMRAPGETKAAVYPGDAGSGAALQIVTDQAPMLVDSVTVLLHRHGIAYTAIMNPVFRVRRGLDGELLDVRPAAEAAPGDGADECWILVPITAAADGEALTEATRLVPGILAEARQIGLDSGAMIAALHGLANDLATDLEGHFPNAERKEVAALLRWLADGHFVLLGYQQCVVGDGNAEVDPASRLGVLRLRNDVLPPLTDSDDLLVLAQATMPSYLRYGAYPYIVVVRESPGASRVIEHRFVGLFTVAAMNANALEIPLISRRVEEALAMAHRDPSHPGQLLRDIIQTIPRPELFALSSKQLLEMALAVVDLGSRRRTLLFLRADHLAHFVSCLVYLPRDRYTTAVRLEMQDILVRELGGAGIDYSARVSESPWAVVHFTVRLPEGTAADSVDTSLENESRIQDLLTEATRNWGDRMISAAAAASISPAALEHYAHAFPEDYKQAFAPQDAIADISLIEALQDDSVKLVLADTAEDRVWKLTWYLGGHSASLSELLPMLQSMGVVVLEERPFTLRRTDGLPVWIYQFKISPHPSIPHAPDAEAQRDTAQRFADAVTAIWHGRVEIDRFNELVMRAGLTWQQVVVLRAYAKYLRQAGFPYSQSHIESVLNENPHTTRSLIDLFEALFDPSQETDGRRDAQGAAAAVAADIDALVSLDTDRVLRAFANLIEATLRTNYFVARPDSARARNVLAFKLNPLVIKELPLPRPKFEIFVYSPRVEGVHLRFGFVARGGLRWSDRREDFRTEILGLVKAQAVKNAVIVPVGAKGGFVVKRPPTLTGDAAADREATRAEGVECYRLFISGLLDVTDNVDKATGAVVTPPEVVRRDGEDAYLVVAADKGTATFSDIANEVAKSYGFWLGDAFASGGSIGYDHKAMGITAKGAWESVKRHFREMGVDTQTQDFTVVGIGDMSGDVFGNGMLLSKHIRLVAAFDHRDIFLDPNPDAGRSWDERKRLFDLPRSSWADYDKSLISEGGGVYSRQQKSIPISPQVRTALGLDADVEELTPPALIKAILKAPVDLLWNGGIGTYIKAETEADADVGDRANDQIRVCGNQVRAKVIGEGGNLGVTALGRIEFDLAGGRINTDALDNSAGVDCSDHEVNIKILIDSAVTAGKVTPEERTELLLSMTDEVGELVLADNRDQNDLMGTSRANAASLLSVHARMIKDLVDNRGLNRELEALPSEKEIRRRADAGIGLTSPELATLMAHVKLALKDDVLASDLPDQEVFASRLPYYFPTRLREELHGEIRSHQLRREIITTMLVNDLVDTAGISYAYRITEDVGVGPVDAVRSYVAINAIFGIGDVWRRIRAAGDAGVPTSVTDRMTLDLRRLVDRAGRWLLNYRPQPLAVGAEINRFGAKVAALTPRMSEWLRGDDKAIVSKEAGDFASHGVPEDLAYHIATGLYQYSLLDVIDIADIVDREPDEVADTYFALMDHLGADALLTAVSRLSRDDRWHSLARLAIRDDIYGSLRALCFDVLAVGEPDENGEEKIAEWETTNSSRVTRARRTLTEIYKDGEQDLATLSVAARQIRSMTRTSGTGTTG
modifications: seleno-methionine in place of methionine
notes: No cleavage of the His6 tag is described; Crystallised from a solution that also held an equimolar amount of GarA from M. tuberculosis, which was not found in the crystal; also called seleno-methionine (Se-Met) derivative of mL-GDH180
B2: native mL-GDH180 (mycobacterial large glutamate dehydrogenase of 180 kDa subunits from Mycobacterium smegmatis MC2-155) (enzyme, UniProt A0R1C2 1-1594, looked up)
chain: B1 chain
notes: NAD-dependent large glutamate dehydrogenase (L-GDH180), Mycobacterium smegmatis MC2-155, MSMEG_4699, Uniprot A0R1C2; No cleavage of the His6 tag is described; Only residues 500-1588 are modelled in the cryo-EM coordinates (7A1D); also called L-GDH180 from M. smegmatis; MSMEG_4699; source: E. coli BL21(DE3) grown in LB broth, purified (HisTrap HP, Superose 6 size-exclusion chromatography)

What was measured:
[1] = molecular target: the molecule itself; assay: crystal structure; Se-Met mL-GDH180 at 16.5 mg/ml with equimolar GarA; 100 mM sodium cacodylate pH 5.8, 12% v/v glycerol, 1.25 M (NH4)2SO4, 4 °C; two monomers in the asymmetric unit, tetramer by crystallographic symmetry; 6.27 Å
[2] = molecular target: the molecule itself; assay: cryo-EM structure; 0.3 mg/ml native mL-GDH180 on Quantifoil R2/2 grids; single-particle, D2 symmetry; open (4.19 Å) and closed (6.6 Å) tetramers

Protein | stoichiometry N [1] | stoichiometry N [2]
B1 | 4 | –
B2 | – | 4
